Assay [1] addresses Human astrovirus 6 capsid spike (Spike 6) (human astrovirus serotype 6). Briefly: SEC.
For assay [2], the target named is Human astrovirus 2 capsid spike (Spike 2) (human astrovirus serotype 2). The experiment in a line: SEC. (In general: Size exclusion chromatography separates by hydrodynamic size, large species first.)

One may read the stoichiometry N as a count of units in the complex or per binding partner.

In assay [1], “Human astrovirus 6 capsid spike (Spike 6) (domain or fragment)” showed a stoichiometry N of 2.

The substance “Human astrovirus 2 capsid spike (Spike 2) (domain or fragment)” came in with a stoichiometry N in assay [2] of 2.

The values are drawn from publication PMC8229645.
